One molecule from patent US20260116951A1 (DUCENTIS BIOTHERAPEUTICS, published 2026) can be followed below.

Assay [1] deals with T1, Human CD200R1L (human, UniProt Q6Q8B3 24-239, limits assumed).
T1 construct: nothing is said of the reagent
T1 sequence (looked up): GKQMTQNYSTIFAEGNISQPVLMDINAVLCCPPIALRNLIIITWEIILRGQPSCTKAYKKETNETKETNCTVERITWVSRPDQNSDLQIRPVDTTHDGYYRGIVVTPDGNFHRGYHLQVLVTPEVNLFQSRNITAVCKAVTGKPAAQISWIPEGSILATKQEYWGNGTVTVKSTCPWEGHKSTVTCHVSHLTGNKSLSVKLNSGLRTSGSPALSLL
Briefly: SPR (BIAcore). Background: SPR reads the build-up and loss of mass on a sensor chip optically.

The target of assay [2] is T2, Mouse CD200R protein (Creative Biomart CD200R1-3280M) (mouse, UniProt Q9ES57 26-238).
T2 construct: also called Murine CD200R1; murine CD200R
T2 sequence (looked up): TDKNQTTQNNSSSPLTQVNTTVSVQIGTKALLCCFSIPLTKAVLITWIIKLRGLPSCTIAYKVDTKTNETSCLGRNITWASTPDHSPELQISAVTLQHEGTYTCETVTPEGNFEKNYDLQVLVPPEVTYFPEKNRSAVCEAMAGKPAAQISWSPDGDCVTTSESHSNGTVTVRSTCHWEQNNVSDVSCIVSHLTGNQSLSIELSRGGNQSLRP
Briefly: SPR (BIAcore).

Assay [3] deals with T3, Human CD200R, full length, on transduced U937 cells (U937-CD200R) (human, UniProt Q8TD46 25-348).
T3 construct: whole, on cells; also called U937-CD200R cells; CD200R-expressing U937 cells
T3 sequence (looked up): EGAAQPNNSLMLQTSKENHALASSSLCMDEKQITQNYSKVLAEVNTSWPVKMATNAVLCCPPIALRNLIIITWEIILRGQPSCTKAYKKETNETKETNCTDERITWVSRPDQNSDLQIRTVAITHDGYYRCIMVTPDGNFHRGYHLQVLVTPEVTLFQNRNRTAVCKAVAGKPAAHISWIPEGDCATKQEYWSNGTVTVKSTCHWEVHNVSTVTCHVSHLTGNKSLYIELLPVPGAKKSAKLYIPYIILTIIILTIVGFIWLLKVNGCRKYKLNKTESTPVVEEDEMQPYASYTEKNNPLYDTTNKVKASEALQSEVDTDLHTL
Briefly: Flow cytometry on U937-CD200R cells, 4 hours incubation at 37 C, fluorescent anti-human secondary antibody. As to the method: Construct treatment (50 μL) was performed starting from 10 μg/mL with 3-fold dilutions up to 10 concentrations with FACS buffer and incubated for 1-hour, 4-hours and 24-hours at 37° C. At the end of each time point, cells were collected and washed. 10 μg/mL of anti-human secondary antibody was added and incubated for 30 minutes at 4° C. Cells were washed post incubation and stained to check viability (1 μL dye per million cells per mL 1×PBS) for 20 minutes at 4° C. Cells were washed and fixed with Fixation buffer (100 μL per test) at 4° C. for 20 minutes. Post incubation, cells were washed and the pellet was re-suspended in FACS buffer (100 μL per test) for data acquisition on flow cytometer.
For orientation: In flow cytometry, cells or beads pass a laser one at a time.

Assay [4] has as its target T4, Recombinant Cyno CD200R, His-tagged (Creative Biomart CD200R1-3483C) (cynomolgus monkey).
T4 construct: Bought; also called cynomolgus CD200R1; cynomolgus CD200R
Briefly: SPR (BIAcore), DS-118 captured (0.5 ug/mL), CynoCD200R1 flowed at 1000 nM to 62.5 nM, 25 C, 1:1 Binding model, run 2. Here is the method:
For human CD200 constructs: anti-human Fc (GE Healthcare) was covalently immobilized on a BIAcore CM5 sensor chip (Cytiva, BR100530) by amine coupling using a Cytiva kit (BR100839) following the manufacturer's instructions, targeting immobilization of 8,000-11,000 RU. CD200-Fc proteins were diluted to 0.5 μg/mL to 4 μg/mL in running Buffer (1×HBS-EP+pH7.4 (Cytiva BR100669), HEPES Buffered Saline pH 7.4 containing 3 mM EDTA and 0.05% v/v Surfactant P20) and flowed for 25 to 100 seconds at 10 μL/min over the immobilized Anti-Human IgG Fc, with a stabilization time of 60 seconds. Between 35 and 250 RUs of CD200-Fc were captured, with higher RUs used for cynomolgus CD200R binding experiments. […] Analysis temperature was 25° C. This was followed by regeneration of the surface with 30-90 second pulse of 3M MgCl₂ flowed at […] flow rate followed by stabilization of the surface with 60 second flow of running buffer.
For mouse CD200 constructs, muCD200R-Fc (Creative Biomart CD200R1-458M) diluted to 1 μg/mL in running buffer was flowed over the immobilized Anti-Human IgG Fc, with CD200 monomers serially diluted and flowed over captured CD200R. Other details were as above. Data analysis: experimental sensorgrams were analyzed in BIAevaluation software (GE Healthcare). The curves obtained were fitted to 1:1 Langmuir binding model by setting Rmax and RI as local parameters. Rate equations using standard parameters (e.g. ligand concentration, time) were used for iterative curve fitting. Closeness of fit was determined by algorithms provided by the manufacturer in the BIAevaluation software, and data accepted if the Chi² value was less than 10% of Rₘₐₓ, and the U value was less than or equal to 15.

In assay [5] the target is T5, Cyno PBMCs.
T5 construct: No receptor was assigned; also called cynomolgus monkey PBMCs, gated on live cells
Briefly: Flow cytometry, % binding on cynomolgus PBMCs gated on live cells, 1 hour at 37 C, anti-human secondary antibody; the target protein on the cells is not named. Here is the method:
PBMC cells were re-suspended with a density of 0.1 million cells per assay point, with 50 μL FACS buffer (1×PBS+2% FBS). Dilutions of huCD200-Fc in 50 μL were added, starting at 10 μg/mL with 3-fold dilutions up to 10 concentrations with FACS buffer, and incubated for 1-hour at 37° C. At the end of each time point, cells were collected and washed (addition of 200 μL FACS buffer and centrifugation at 1400 RPM). 10 μg/mL of anti-human secondary antibody (Abcam Ab98596) was added together with excess Fc block (Innovex Biosciences no. NB309), and incubated for 30 minutes at 4° C. Cells were washed post incubation and stained to check viability (1 μL dye per million cells per mL 1×PBS, ThermoFisher C34557A) for 20 minutes at 4° C. Cells were washed and fixed with Fixation buffer (100 μL per test, BD Sciences 554655) at 4° C. for 20 minutes. Post incubation, cells were washed and the pellet was re-suspended in FACS buffer (100 μL per test) for data acquisition on the flow cytometer.

For orientation: EC50 (read off the curve) means the concentration giving half of the maximal effect. As usually defined, the Kd is the equilibrium constant for the complex coming apart. For orientation: koff means a measure of how fast the partners let go of each other. What is called kon is a measure of how fast the partners come together. A word on the EC50: it is the concentration needed to bring the measured effect to its halfway point. Read a low EC50 as a more potent agent.

B1: DS-118 (mutated human CD200-Fc fusion protein, K130Y, I131Y, IgG4 S228P Fc) (Fc fusion)
chain: QVQVVTQDEREQLYTPASLKCSLQNAQEALIVTWQKKKAVSPENMVTFSENHGVVIQPAYKDKINITQLGLQNSTITFWNITLEDEGCYMCLFNTFGFGYYSGTACLTVYVQPIVSLHYKFSEDHLNITCSATARPAPMVFWKVPRSGIENSTVTLSHPNGTTSVTSILHIKDPKNQVGKEVICQVLHLGTVTDFKQTVNKGPPCPPCPAPEFLGGPSVFLFPPKPKDTLMISRTPEVTCVVVDVSQEDPEVQFNWYVDGVEVHNAKTKPREEQFNSTYRVVSVLTVLHQDWLNGKEYKCKVSNKGLPSSIEKTISKAKGQPREPQVYTLPPSQEEMTKNQVSLTCLVKGFYPSDIAVEWESNGQPENNYKTTPPVLDSDGSFFLYSRLTVDKSRWQEGNVFSCSVMHEALHNHYTQKSLSLSLGK
notes: also called mutated CD200-Fc; mutant CD200-Fc
As for B1, in assay [1], the binding result is recorded as “no binding”. In assay [2], the binding result is “no binding”. In addition, the concentration for a half-maximal effect (EC50 (read off the curve)) in assay [3] was about 0.9 µg/mL. In addition, in assay [4], the Kd came to 204 nM, the koff is 0.0596 s⁻¹ and the on-rate (kon) turned out to be 292000 M⁻¹ s⁻¹. In assay [5], this molecule had an EC50 of 1.96 µg/mL.
